Laboratory results as given in patent publication US11180767B2, “Protease deficient filamentous fungal cells and methods of use thereof” (GLYKOS FINLAND OY, priority 2012, dated 2021).

Key:
[1] = system: tryptic and chymotryptic proteases; assay: In vitro inhibitor treatment: rituximab heavy chain degradation in M44 supernatant; type: biochemical, Trichoderma reesei; conditions: 100 μM chymostatin or 1 mg/ml SBTI; M44 supernatant 6 mg/ml, pH 5.5
Description: Based on the knowledge that the heavy chain is cleaved by tryptic and chymotryptic proteases, inhibitors of these two enzyme classes were tested against antibody degradation both in vitro and in culture experiments utilizing an antibody producing T. reesei strain. The inhibitors soybean trypsin inhibitor (SBTI) and chymostatin were tested, as they have been previously shown in in vitro experiments to stabilize antibody heavy chains.
Chymostatin and SBTI were analyzed in vitro with culture supernatant. Supernatant from a fed batch fermentor culture was diluted to 6 mg/ml with sodium citrate buffer pH 5.5 (pH 5.5; 28° C.; 20 g/L spent grain extract, 60 g/L lactose). […] The strain was grown in Trichoderma minimal medium supplemented with 20 g/l spent grain extract and 60 g/l lactose at pH 5.5 and 28° C.
To this diluted supernatant 0.05 μg μl of rituximab, 100 μM chymostatin, 1 mg/ml SBTI, or a combination of both inhibitors was added in a total volume of 50 μl and sampled at 0, 1, and 19 hours to assess the early and late degradation of the rituximab antibody heavy chain. The resulting heavy chain products were analyzed by immunoblot using and anti-heavy chain AP conjugated antibody (Sigma #A3188) diluted 1:30,000 in TBST (FIG. 35). […] Additional fragments were generated after 19 hours, the two major products remained.

[2] = system: SIP purified proteases (PEP2, PEP3, PEP4, PEP5, GAP1, SLP2); assay: Protease activity of SIP purified fractions against casein with inhibitors (EnzChek); type: biochemical, Trichoderma reesei; conditions: pH 5.5
Description: Protease activity was then tested against casein both in the presence and absence of protease inhibitors. Protease activity against casein was tested using the EnzChek protease assay kit (Molecular probes #E6638, green fluorescent casein substrate). The working stock solution was prepared by diluting the stock to 10 μg ml in 50 mM sodium citrate, pH 5.5. The purified protease fractions (10 μl) were diluted with […] of sodium citrate, pH 5.5. 100 μl of the diluted substrate was combined with the diluted protease fractions in a 96 well sample plate. The plate was then covered and kept at 37° C. for one to three hours. Fluorescence readings were taken at one, two, and three hours with a Varioskan fluorescent plate reader (Thermo Scientific) using 485 nm excitation and 530 nm emission.
The SIP inhibitor peptide, pepstatin A, LIP peptide, SBTI, and chymostatin were used as inhibitors. […] SIP, LIP, and pepstatin A were used at a concentration of 60 μM, and SBTI was used at a concentration of 200 μg/ml.

[3] = system: M369 human growth hormone strain; assay: hGH production in 24 well cultures with inhibitors and supplements; type: cell-based, Trichoderma reesei; conditions: 24 well culture, pH 4.5, day 4 immunoblot
Description: To evaluate what inhibitors would best stabilize production of hGH, 24 well cultures of these strains were performed. The M369 human growth hormone strain (Δpep1Δtsp1Δslp1Δgap1Δgap2) was grown along with single components or with combinations of the following: trypsin and subtilisin inhibitor SBTI, the acidic protease inhibitor peptide SIP, the acidic protease inhibitor peptide LIP, the aspartic protease inhibitor pepstatin A free peptide, pepstatin A immobilized to agarose beads, the trypsin and subtilisin inhibitor BBI from lima bean, the […] chymostatin, and BSA. Three independent wells were chosen for control wells where no inhibitors or supplements were added. These two strains were grown in 3 ml of TrMM with diammonium citrate without ammonium sulfate, 100 mM PIPPS, 20 g/L spent grain extract, 40 g/L lactose adjusted to pH 4.5. The 24 well plates were shaken at 800 rpm, 85% humidity, and 28° C. The cultures were grown for 6 days and covered with an air permeable membrane.
Inhibitors were added first on day 1 and then daily beginning on day 3. 100 μl samples were taken from the culture wells beginning on day 3. The mycelium was spun down for 5 minutes at 13 k and the supernatant collected. […]

B1: SBTI: soybean trypsin inhibitor, trypsin and subtilisin inhibitor (protein)
chain: DFVLDNEGNPLENGGTYYILSDITAFGGIRAAPTGNERCPLTVVQSRNELDKGIGTIISSPYRIRFIAEGHPLSLKFDSFAVIMLCVGIPTEWSVVEDLPEGPAVKIGENKDAMDGWFRLERVSDDEFNNYKLVFCPQQAEDDKCGDIGISIDHDDGTRRLVVSKNKPLVVQFQKLDKESL
Question: B1 was tested. Which “rituximab heavy chain fragment formation” value [1] did it give?
Answer: Its value is “inhibited the 38 kD fragment from forming”.

Question: And the proteases inhibited ([2]; SIP, LIP, pepstatin A 60 μM, SBTI 200 μg/ml)?
Answer: The proteases inhibited was “able to inhibit SLP2 and PEP4”.

Question: What about the “inhibition of SIP purified protease activity against casein” value ([2]; FIG. 11) of the same molecule?
Answer: The value was “able to inhibit the SLP2 protease”.

Question: What about the “effect on hGH production” value [3] of the same molecule?
Answer: The value was “improved production”.
